Assay results as given in PMC7737607 (The EMBO Journal, 2020).

Target: T1, Cap-Gly-CC1a-p150Glued-V5 (human, UniProt Q14203-1 1-358)
T1 construct: ATUM ordered gene ID #391071; also called Cap-Gly-CC1-p150Glued-V5; p150Glued-V5-tagged fragment; source: generated and purchased from ATUM Bio, purified (streptavidin-column based methods)
Assay: pull-down; purified proteins mixed 1:1, with or without FLAG-EB1 WT or ΔY C-term, 1 h at 4°C in 20 mM Tris-HCl pH 7.4, 350 mM NaCl, 1 mM 2-mercaptoethanol; p150Glued-V5 fragment captured on anti-V5 antibody-coated beads, 2 h at 4°C; Western blot
Conditions: both partners purified

T1 sequence (Q14203 1-358): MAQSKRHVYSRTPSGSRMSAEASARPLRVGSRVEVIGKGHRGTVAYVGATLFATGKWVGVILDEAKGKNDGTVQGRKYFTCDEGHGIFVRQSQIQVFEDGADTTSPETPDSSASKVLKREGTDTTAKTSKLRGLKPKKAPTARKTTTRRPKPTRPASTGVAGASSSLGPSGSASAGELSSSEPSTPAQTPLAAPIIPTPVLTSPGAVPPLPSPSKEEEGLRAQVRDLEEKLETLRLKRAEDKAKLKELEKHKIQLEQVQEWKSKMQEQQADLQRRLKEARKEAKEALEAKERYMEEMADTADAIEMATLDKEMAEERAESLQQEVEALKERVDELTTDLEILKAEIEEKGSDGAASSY

B1: FLAG-EB1 WT C-term (domain or fragment, human, UniProt Q15691 191-268, looked up)
chain: DEAAELMQQVNVLKLTVEDLEKERDFYFGKLRNIELICQENEGENDPVLQRIVDILYATDEGFVIPDEGGPQEEQEEY
notes: ATUM ordered gene ID #394359; also called FLAG-EB1 C-terminal; FLAG-tagged EB1 WT; source: generated and purchased from ATUM Bio, purified (streptavidin-column based methods)
B1: binds.
